{"source": "patent US11357833B2", "about": "“Use of lysin to restore/augment antibacterial activity in the presence of pulmonary surfactant of antibiotics inhibited thereby” (priority 2015, dated 2022)", "molecules": {"B1": {"name": "CF-301: Bacteriophage lysin polypeptide, SEQ ID NO: 1 (GenBank accession ZP 03625529), antimicrobial agent against Staphylococcus aureus (protein, listed as Streptococcus suis)", "chain": "MTTVNEALNNVRAQVGSGVSVGNGECYALASWYERMISPDATVGLGAGVGWVSGAIGDTISAKNIGSSYNWQANGWTVSTSGPFKAGQIVTLGATPGNPYGHVVIVEAVDGDRLTILEQNYGGKRYPVRNYYSAASYRQQVVHYITPPGTVAQSAPNLAGSRSYRETGTMTVTVDALNVRRAPNTSGEIVAVYKRGESFDYDTVIIDVNGYVWVSYIGGSGKRNYVATGATKDGKRFGNAWGTFK"}}, "key": {"MSSA ATCC 49521": {"test_system": "MSSA ATCC 49521", "experiment": "Combination MIC assay in 7.5% surfactant", "parameters": "MIC alone / MIC combo: unit not given beside the values", "details": "for MIC combo: CF-301 and daptomycin in combination; for MIC alone: single agent"}, "MRSA NRS-192": {"test_system": "MRSA NRS-192", "experiment": "Combination MIC assay in 7.5% surfactant", "parameters": "MIC alone / MIC combo: unit not given beside the values", "details": "for MIC combo: CF-301 and daptomycin in combination; for MIC alone: single agent"}, "[1]": {"test_system": "methicillin-susceptible (MSSA) strain ATCC 29213", "experiment": "MIC by broth microdilution, with and without bovine-derived surfactant"}, "[2]": {"test_system": "MRSA, MSSA, and VISA strains of S. aureus", "experiment": "MIC by broth microdilution in increasing surfactant, strains pooled", "details": "for Antimicrobial activity in the presence of pulmonary (bovine-derived) surfactant: MRSA, MSSA and VISA strains"}, "[3]": {"test_system": "methicillin resistant strain (MRSA) MW2", "experiment": "MIC by broth microdilution, with and without bovine-derived surfactant"}, "MRSA BAA-1720": {"test_system": "MRSA BAA-1720", "experiment": "Combination MIC assay in 7.5% surfactant", "parameters": "MIC alone / MIC combo: unit not given beside the values", "details": "for MIC combo: CF-301 and daptomycin in combination; for MIC alone: single agent"}, "MSSA Newman": {"test_system": "MSSA Newman", "experiment": "Combination MIC assay in 7.5% surfactant", "parameters": "MIC alone / MIC combo: unit not given beside the values", "details": "for MIC combo: CF-301 and daptomycin in combination; for MIC alone: single agent"}, "MSSA NRS-131": {"test_system": "MSSA NRS-131", "experiment": "Combination MIC assay in 7.5% surfactant", "parameters": "MIC alone / MIC combo: unit not given beside the values", "details": "for MIC combo: CF-301 and daptomycin in combination; for MIC alone: single agent"}, "MSSA ATCC 29213": {"test_system": "MSSA ATCC 29213", "experiment": "Combination MIC assay in 7.5% surfactant", "parameters": "MIC alone / MIC combo: unit not given beside the values", "details": "for MIC combo: CF-301 and daptomycin in combination; for MIC alone: single agent"}, "MRSA MW2 [4]": {"test_system": "MRSA MW2", "experiment": "Combination MIC assay in 7.5% surfactant", "parameters": "MIC alone / MIC combo: unit not given beside the values", "details": "for MIC combo: CF-301 and daptomycin in combination; for MIC alone: single agent"}, "[5]": {"test_system": "S. aureus (MRSA strain ATCC BAA-42)", "experiment": "Murine model of S. aureus pneumonia", "details": "14 days; CF-301 i.v., DAP s.c.; once daily"}, "MSSA ATCC 25923": {"test_system": "MSSA ATCC 25923", "experiment": "Combination MIC assay in 7.5% surfactant", "parameters": "MIC alone / MIC combo: unit not given beside the values", "details": "for MIC combo: CF-301 and daptomycin in combination; for MIC alone: single agent"}, "MRSA NRS-265": {"test_system": "MRSA NRS-265", "experiment": "Combination MIC assay in 7.5% surfactant", "parameters": "MIC alone / MIC combo: unit not given beside the values", "details": "for MIC combo: CF-301 and daptomycin in combination; for MIC alone: single agent"}, "MRSA NRS-255": {"test_system": "MRSA NRS-255", "experiment": "Combination MIC assay in 7.5% surfactant", "parameters": "MIC alone / MIC combo: unit not given beside the values", "details": "for MIC combo: CF-301 and daptomycin in combination; for MIC alone: single agent"}, "MRSA MW2 [6]": {"test_system": "MRSA MW2", "experiment": "BODIPY-labeled daptomycin binding assay, fluorescence microscopy", "details": "CF-301 8 μg/ml; BODIPY-DAP 4 μg/ml; 7.5% surfactant"}, "VISA ATCC 700699": {"test_system": "VISA ATCC 700699", "experiment": "BODIPY-labeled daptomycin binding assay, fluorescence microscopy", "details": "CF-301 4 μg/ml; DAP^BD 4 μg/ml; 30 min; 7.5% surfactant"}, "[7]": {"test_system": "5 strains of MRSA and 5 strains of MSSA", "experiment": "Combination MIC assay in 7.5% surfactant, strains pooled", "details": "CF-301 and DAP combined, across strains"}}}
{"molecule": "CCCCCCCCCC(=O)N[C@@H](Cc1c[nH]c2ccccc12)C(=O)N[C@H](CC(N)=O)C(=O)N[C@@H](CC(=O)O)C(=O)N[C@@H]1C(=O)NCC(=O)N[C@@H](CCCN)C(=O)N[C@@H](CC(=O)O)C(=O)N[C@H](C)C(=O)N[C@@H](CC(=O)O)C(=O)NCC(=O)N[C@H](CO)C(=O)N[C@@H]([C@H](C)CC(=O)O)C(=O)N[C@@H](CC(=O)c2ccccc2N)C(=O)O[C@@H]1C", "note": "[DAP, daptomycin, reference compound]", "values": [{"measurement": "Fold reduction (MIC alone vs combo)", "setting": "MSSA ATCC 49521", "value": 512, "unit": "fold"}, {"measurement": "MIC combo", "setting": "MSSA ATCC 49521", "value": 0.5}, {"measurement": "MIC alone", "setting": "MSSA ATCC 49521", "value": 256}, {"measurement": "Fold reduction (MIC alone vs combo)", "setting": "MRSA NRS-192", "value": 512, "unit": "fold"}, {"measurement": "MIC combo", "setting": "MRSA NRS-192", "value": 0.5}, {"measurement": "MIC alone", "setting": "MRSA NRS-192", "value": 256}, {"measurement": "MIC", "setting": "[1]; Staphylococcus aureus, ATCC29213|MSSA, 24 h, read-out: Starting MIC (without surfactant)", "value": 1, "unit": "µg/mL"}, {"measurement": "Antimicrobial activity in the presence of pulmonary (bovine-derived) surfactant", "setting": "[2]", "value": "not active"}, {"measurement": "MIC increase", "setting": "[2]; strain not specified, surfactant concentrations 1.25-15%", "value": 256, "unit": "fold"}, {"measurement": "MIC", "setting": "[3]; Staphylococcus aureus, MRSA, 24 h, read-out: Starting MIC (without surfactant)", "value": 1, "unit": "µg/mL"}, {"measurement": "Fold reduction (MIC alone vs combo)", "setting": "MRSA BAA-1720", "value": 1024, "unit": "fold"}, {"measurement": "MIC combo", "setting": "MRSA BAA-1720", "value": 0.25}, {"measurement": "MIC alone", "setting": "MRSA BAA-1720", "value": 256}, {"measurement": "Fold reduction (MIC alone vs combo)", "setting": "MSSA Newman", "value": 512, "unit": "fold"}, {"measurement": "MIC combo", "setting": "MSSA Newman", "value": 0.5}, {"measurement": "MIC alone", "setting": "MSSA Newman", "value": 256}, {"measurement": "Fold reduction (MIC alone vs combo)", "setting": "MSSA NRS-131", "value": 1024, "unit": "fold"}, {"measurement": "MIC combo", "setting": "MSSA NRS-131", "value": 0.5}, {"measurement": "MIC alone", "setting": "MSSA NRS-131", "value": 512}, {"measurement": "Fold reduction (MIC alone vs combo)", "setting": "MSSA ATCC 29213", "value": 512, "unit": "fold"}, {"measurement": "MIC combo", "setting": "MSSA ATCC 29213", "value": 0.5}, {"measurement": "MIC alone", "setting": "MSSA ATCC 29213", "value": 256}, {"measurement": "Fold reduction (MIC alone vs combo)", "setting": "MRSA MW2 [4]", "value": 1024, "unit": "fold"}, {"measurement": "MIC combo", "setting": "MRSA MW2 [4]", "value": 0.25}, {"measurement": "MIC alone", "setting": "MRSA MW2 [4]", "value": 256}, {"measurement": "Survival pattern, comparison between treatment groups", "setting": "[5]", "value": "same survival pattern as those treated with saline"}, {"measurement": "Fold reduction (MIC alone vs combo)", "setting": "MSSA ATCC 25923", "value": 512, "unit": "fold"}, {"measurement": "MIC combo", "setting": "MSSA ATCC 25923", "value": 0.5}, {"measurement": "MIC alone", "setting": "MSSA ATCC 25923", "value": 256}, {"measurement": "Fold reduction (MIC alone vs combo)", "setting": "MRSA NRS-265", "value": 1024, "unit": "fold"}, {"measurement": "MIC combo", "setting": "MRSA NRS-265", "value": 0.25}, {"measurement": "MIC alone", "setting": "MRSA NRS-265", "value": 256}, {"measurement": "Fold reduction (MIC alone vs combo)", "setting": "MRSA NRS-255", "value": 1024, "unit": "fold"}, {"measurement": "MIC combo", "setting": "MRSA NRS-255", "value": 0.5}, {"measurement": "MIC alone", "setting": "MRSA NRS-255", "value": 512}]}
{"molecule": "B1", "values": [{"measurement": "Fold reduction (MIC alone vs combo)", "setting": "MSSA ATCC 49521", "value": 32, "unit": "fold"}, {"measurement": "MIC combo", "setting": "MSSA ATCC 49521", "value": 2}, {"measurement": "MIC alone", "setting": "MSSA ATCC 49521", "value": 64}, {"measurement": "Fold reduction (MIC alone vs combo)", "setting": "MRSA NRS-192", "value": 16, "unit": "fold"}, {"measurement": "MIC combo", "setting": "MRSA NRS-192", "value": 4}, {"measurement": "MIC alone", "setting": "MRSA NRS-192", "value": 64}, {"measurement": "BODIPY-DAP (DAP^BD) binding to MRSA", "setting": "MRSA MW2 [6]", "value": "promotes"}, {"measurement": "Starting MIC (without surfactant)", "setting": "[1]; ATCC 29213, no surfactant, 24 hours at 35° C.", "value": 16, "unit": "µg/mL"}, {"measurement": "MIC increase", "setting": "[1]; MSSA strain, surfactant concentrations 1.25-15%", "value": "up to 2 fold"}, {"measurement": "Antimicrobial activity in the presence of pulmonary (bovine-derived) surfactant", "setting": "[2]", "value": "active"}, {"measurement": "MIC increase", "setting": "[3]; MRSA strain, surfactant concentrations 1.25-15%", "value": "up to 2 fold"}, {"measurement": "Starting MIC (without surfactant)", "setting": "[3]; MW2, no surfactant, 24 hours at 35° C.", "value": 32, "unit": "µg/mL"}, {"measurement": "Fold reduction (MIC alone vs combo)", "setting": "MRSA BAA-1720", "value": 32, "unit": "fold"}, {"measurement": "MIC combo", "setting": "MRSA BAA-1720", "value": 2}, {"measurement": "MIC alone", "setting": "MRSA BAA-1720", "value": 64}, {"measurement": "Fold reduction (MIC alone vs combo)", "setting": "MSSA Newman", "value": 32, "unit": "fold"}, {"measurement": "MIC combo", "setting": "MSSA Newman", "value": 4}, {"measurement": "MIC alone", "setting": "MSSA Newman", "value": 128}, {"measurement": "Fold reduction (MIC alone vs combo)", "setting": "MSSA NRS-131", "value": 16, "unit": "fold"}, {"measurement": "MIC combo", "setting": "MSSA NRS-131", "value": 4}, {"measurement": "MIC alone", "setting": "MSSA NRS-131", "value": 64}, {"measurement": "DAP^BD binding to VISA", "setting": "VISA ATCC 700699", "value": "promotes"}, {"measurement": "Fold reduction (MIC alone vs combo)", "setting": "MSSA ATCC 29213", "value": 32, "unit": "fold"}, {"measurement": "MIC combo", "setting": "MSSA ATCC 29213", "value": 4}, {"measurement": "MIC alone", "setting": "MSSA ATCC 29213", "value": 128}, {"measurement": "Fold reduction (MIC alone vs combo)", "setting": "MRSA MW2 [4]", "value": 32, "unit": "fold"}, {"measurement": "MIC combo", "setting": "MRSA MW2 [4]", "value": 2}, {"measurement": "MIC alone", "setting": "MRSA MW2 [4]", "value": 64}, {"measurement": "Fold reduction (MIC alone vs combo)", "setting": "MSSA ATCC 25923", "value": 32, "unit": "fold"}, {"measurement": "MIC combo", "setting": "MSSA ATCC 25923", "value": 4}, {"measurement": "MIC alone", "setting": "MSSA ATCC 25923", "value": 128}, {"measurement": "Growth inhibitory concentration lower in combination than as single agent (MIC reduction)", "setting": "[7]", "value": "16-32 fold"}, {"measurement": "Fold reduction (MIC alone vs combo)", "setting": "MRSA NRS-265", "value": 16, "unit": "fold"}, {"measurement": "MIC combo", "setting": "MRSA NRS-265", "value": 4}, {"measurement": "MIC alone", "setting": "MRSA NRS-265", "value": 64}, {"measurement": "Fold reduction (MIC alone vs combo)", "setting": "MRSA NRS-255", "value": 16, "unit": "fold"}, {"measurement": "MIC combo", "setting": "MRSA NRS-255", "value": 2}, {"measurement": "MIC alone", "setting": "MRSA NRS-255", "value": 64}]}
